Source: paper PMC10247859, “Replisome-cohesin interactions provided by the Tof1-Csm3 and Mrc1 cohesion establishment factors” (Chromosoma, 2023)

Key:
Conditions in all cases: both partners purified
[1] = biological target: T1, cohesin tetramer complex (Smc1-Smc3-Scc1-Scc3) (S. cerevisiae (budding yeast), UniProt P32908 1-1225; P47037 1-1230; Q12158 1-566; P40541 1-1150); assay: SEC; Superose 6 Increase 3.2/300; 25 mM HEPES-KOH pH 7.6, 100 mM sodium acetate, 0.5 mM TCEP, 2 mM EDTA; proteins at the same molarity incubated together or separately at 30 °C for 5 min; fractions analysed by immunoblotting
T1 construct: Smc1, cohesin subunit, budding yeast; Smc3, cohesin subunit, budding yeast; Scc1, cohesin subunit, budding yeast; Scc3, cohesin subunit, budding yeast; also called cohesin complex; source: purified as previously described (Minamino et al. 2018): IgG agarose, 3C protease cleavage; copies: + + +
T1 sequence (P32908 whole entry, chain 1 of 4, one chain of several): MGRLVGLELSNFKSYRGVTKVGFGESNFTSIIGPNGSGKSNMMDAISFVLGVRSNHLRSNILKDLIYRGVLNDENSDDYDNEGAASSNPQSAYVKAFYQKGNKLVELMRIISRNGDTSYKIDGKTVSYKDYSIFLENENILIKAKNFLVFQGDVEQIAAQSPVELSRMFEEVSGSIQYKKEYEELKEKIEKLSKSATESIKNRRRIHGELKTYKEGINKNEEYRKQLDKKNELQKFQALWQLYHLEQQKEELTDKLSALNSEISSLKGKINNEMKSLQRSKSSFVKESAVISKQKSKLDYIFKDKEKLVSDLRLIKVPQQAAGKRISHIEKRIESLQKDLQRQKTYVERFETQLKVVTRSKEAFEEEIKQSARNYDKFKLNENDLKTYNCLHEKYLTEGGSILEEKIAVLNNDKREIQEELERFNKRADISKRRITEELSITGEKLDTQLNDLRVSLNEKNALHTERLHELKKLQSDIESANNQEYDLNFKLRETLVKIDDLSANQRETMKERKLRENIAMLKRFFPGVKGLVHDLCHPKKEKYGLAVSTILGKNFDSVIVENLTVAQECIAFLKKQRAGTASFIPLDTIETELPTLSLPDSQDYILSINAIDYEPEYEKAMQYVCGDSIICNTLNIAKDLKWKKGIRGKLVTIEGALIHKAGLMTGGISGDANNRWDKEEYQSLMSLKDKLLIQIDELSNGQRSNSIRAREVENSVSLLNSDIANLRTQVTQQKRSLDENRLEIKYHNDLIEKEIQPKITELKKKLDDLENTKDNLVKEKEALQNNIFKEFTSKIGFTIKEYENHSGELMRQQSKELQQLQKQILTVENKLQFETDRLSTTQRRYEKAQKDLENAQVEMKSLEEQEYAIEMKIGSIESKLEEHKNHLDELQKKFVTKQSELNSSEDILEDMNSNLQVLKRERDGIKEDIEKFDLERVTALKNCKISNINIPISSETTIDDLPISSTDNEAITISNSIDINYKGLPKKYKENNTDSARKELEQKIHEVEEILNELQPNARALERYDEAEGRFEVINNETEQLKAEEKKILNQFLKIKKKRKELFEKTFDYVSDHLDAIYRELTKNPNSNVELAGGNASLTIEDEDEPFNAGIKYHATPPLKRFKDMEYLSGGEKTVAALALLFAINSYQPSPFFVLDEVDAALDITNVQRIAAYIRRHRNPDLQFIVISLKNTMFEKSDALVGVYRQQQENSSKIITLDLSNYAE
T1 sequence (Q12158 whole entry, chain 3 of 4, one chain of several): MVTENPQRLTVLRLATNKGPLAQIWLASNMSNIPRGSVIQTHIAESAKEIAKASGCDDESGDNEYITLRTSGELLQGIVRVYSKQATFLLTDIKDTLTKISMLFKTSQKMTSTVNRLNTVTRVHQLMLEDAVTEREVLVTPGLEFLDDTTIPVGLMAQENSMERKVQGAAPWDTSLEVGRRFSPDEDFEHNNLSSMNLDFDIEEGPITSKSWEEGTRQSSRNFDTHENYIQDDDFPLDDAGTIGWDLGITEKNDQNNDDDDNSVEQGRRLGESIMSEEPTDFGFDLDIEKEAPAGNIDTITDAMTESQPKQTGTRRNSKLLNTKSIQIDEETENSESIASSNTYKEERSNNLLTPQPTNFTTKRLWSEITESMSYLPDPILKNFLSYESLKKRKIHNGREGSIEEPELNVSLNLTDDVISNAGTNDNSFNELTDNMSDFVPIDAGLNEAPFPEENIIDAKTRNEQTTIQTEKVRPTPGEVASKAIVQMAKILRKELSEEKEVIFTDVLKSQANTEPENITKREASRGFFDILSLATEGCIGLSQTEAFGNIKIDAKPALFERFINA
T1 sequence (P40541 whole entry, chain 4 of 4, one chain of several): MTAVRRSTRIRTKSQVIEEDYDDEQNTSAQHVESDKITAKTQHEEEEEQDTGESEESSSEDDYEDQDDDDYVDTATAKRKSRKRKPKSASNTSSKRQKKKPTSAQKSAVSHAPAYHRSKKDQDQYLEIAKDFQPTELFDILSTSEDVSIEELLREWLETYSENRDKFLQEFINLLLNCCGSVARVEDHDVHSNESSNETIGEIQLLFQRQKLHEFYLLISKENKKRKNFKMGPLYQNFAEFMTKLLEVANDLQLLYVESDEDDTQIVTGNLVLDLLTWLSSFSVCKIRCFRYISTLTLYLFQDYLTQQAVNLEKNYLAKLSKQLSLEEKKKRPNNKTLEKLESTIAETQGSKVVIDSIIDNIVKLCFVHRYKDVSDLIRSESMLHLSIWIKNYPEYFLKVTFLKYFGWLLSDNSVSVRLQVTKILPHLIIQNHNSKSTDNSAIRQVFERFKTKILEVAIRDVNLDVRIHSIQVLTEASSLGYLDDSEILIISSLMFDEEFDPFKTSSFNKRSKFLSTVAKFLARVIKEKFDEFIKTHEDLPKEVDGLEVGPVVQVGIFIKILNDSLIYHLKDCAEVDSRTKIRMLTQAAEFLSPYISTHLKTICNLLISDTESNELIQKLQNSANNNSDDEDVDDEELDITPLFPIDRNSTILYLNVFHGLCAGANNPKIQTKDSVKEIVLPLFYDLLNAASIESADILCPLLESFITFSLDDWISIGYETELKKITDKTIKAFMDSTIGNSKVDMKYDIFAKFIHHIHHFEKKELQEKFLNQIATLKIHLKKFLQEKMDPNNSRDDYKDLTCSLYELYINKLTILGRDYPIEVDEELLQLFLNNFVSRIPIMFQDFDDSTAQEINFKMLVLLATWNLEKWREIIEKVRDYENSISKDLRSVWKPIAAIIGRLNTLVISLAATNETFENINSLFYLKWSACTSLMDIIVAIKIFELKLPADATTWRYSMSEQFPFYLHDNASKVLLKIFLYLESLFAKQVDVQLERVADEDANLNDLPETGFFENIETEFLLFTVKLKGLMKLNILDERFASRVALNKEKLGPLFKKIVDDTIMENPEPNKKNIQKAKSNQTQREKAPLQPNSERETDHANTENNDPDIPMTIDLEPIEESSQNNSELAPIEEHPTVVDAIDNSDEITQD

[2] = biological target: T2, Smc3 (S. cerevisiae (budding yeast), UniProt P47037 1-1230); assay: cross-linking; CLMS with sulfo-SDA; cohesin, Tof1-Csm3 and Chl1 with or without Mrc1 at 300-350 nM, 30 °C 5 min, cross-linker 2 h at 4 °C, UV 365 nm; LC-MS/MS, 1% FDR at residue-pair level; two samples merged
T2 construct: Smc3, budding yeast; the Smc3 chain of m1; Stood in the cross-linking sample as a chain of cohesin; source: purified as part of cohesin, as previously described (Minamino et al. 2018)
T2 sequence (looked up): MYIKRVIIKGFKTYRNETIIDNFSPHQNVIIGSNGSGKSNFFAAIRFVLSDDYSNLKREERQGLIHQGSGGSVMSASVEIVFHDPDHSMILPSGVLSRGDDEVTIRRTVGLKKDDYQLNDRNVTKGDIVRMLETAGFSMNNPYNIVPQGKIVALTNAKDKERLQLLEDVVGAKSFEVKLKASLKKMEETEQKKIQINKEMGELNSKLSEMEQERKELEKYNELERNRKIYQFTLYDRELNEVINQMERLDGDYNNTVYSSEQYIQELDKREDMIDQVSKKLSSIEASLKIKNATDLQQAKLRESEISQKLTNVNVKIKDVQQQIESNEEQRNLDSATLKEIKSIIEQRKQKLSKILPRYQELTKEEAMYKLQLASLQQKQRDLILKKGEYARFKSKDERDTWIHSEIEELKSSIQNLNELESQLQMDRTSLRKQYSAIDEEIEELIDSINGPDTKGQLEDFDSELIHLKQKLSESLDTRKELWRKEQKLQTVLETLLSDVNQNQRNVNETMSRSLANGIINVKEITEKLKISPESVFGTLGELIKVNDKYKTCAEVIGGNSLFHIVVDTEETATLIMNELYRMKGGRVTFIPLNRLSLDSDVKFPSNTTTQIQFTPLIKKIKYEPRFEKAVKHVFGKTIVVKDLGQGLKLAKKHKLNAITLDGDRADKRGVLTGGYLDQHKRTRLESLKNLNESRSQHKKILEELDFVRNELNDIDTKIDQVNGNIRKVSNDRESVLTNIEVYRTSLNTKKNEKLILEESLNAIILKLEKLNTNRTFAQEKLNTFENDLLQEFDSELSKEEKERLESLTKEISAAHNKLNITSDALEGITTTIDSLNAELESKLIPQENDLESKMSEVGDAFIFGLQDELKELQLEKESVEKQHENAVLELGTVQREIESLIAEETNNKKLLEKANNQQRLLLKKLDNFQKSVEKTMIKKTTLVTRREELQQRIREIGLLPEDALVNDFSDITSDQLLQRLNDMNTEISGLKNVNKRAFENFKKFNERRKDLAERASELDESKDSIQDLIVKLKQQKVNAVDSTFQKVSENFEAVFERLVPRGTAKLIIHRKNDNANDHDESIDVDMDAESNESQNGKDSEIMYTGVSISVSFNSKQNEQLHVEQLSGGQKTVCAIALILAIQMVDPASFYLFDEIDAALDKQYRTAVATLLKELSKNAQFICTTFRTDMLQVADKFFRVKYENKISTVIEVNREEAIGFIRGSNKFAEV

[3] = biological target: T3, cohesin trimer (Smc1-Smc3-Scc1) (S. cerevisiae (budding yeast), UniProt P32908 1-1225; P47037 1-1230; Q12158 1-566); assay: pull-down; Flag-tagged Mrc1 (200-600 nM) held on anti-Flag M2 magnetic beads; with or without a first incubation with Tof1-Csm3, then cohesin (tetramer, trimer or Smc1-Smc3 dimer) or GINS; interaction buffer with 100 mM potassium glutamate; elution with 3x Flag peptide or SDS sample buffer; Coomassie staining; benzonase or NaCl added where indicated
T3 construct: Smc1, cohesin subunit, budding yeast; Smc3, cohesin subunit, budding yeast; Scc1, cohesin subunit, budding yeast; source: purified following the same protocol as cohesin tetramers (IgG agarose, 3C protease cleavage); copies: + +
T3 sequence (P32908 whole entry, chain 1 of 3, one chain of several): as the sequence (P32908 whole entry, chain 1 of 4, one chain of several) above
T3 sequence (Q12158 whole entry, chain 3 of 3, one chain of several): as the sequence (Q12158 whole entry, chain 3 of 4, one chain of several) above

[4] = biological target: T4, Smc1-Smc3 dimer (S. cerevisiae (budding yeast), UniProt P32908 1-1225; P47037 1-1230); assay: as above
T4 construct: Smc1, cohesin subunit, budding yeast; Smc3, cohesin subunit, budding yeast; also called SMC dimer; SMC dimers (Smc1-Smc3); source: purified following the same protocol as cohesin tetramers (IgG agarose, 3C protease cleavage); not shown: Protein A, C-terminal, cleaved
T4 sequence (P32908 whole entry, chain 1 of 2, one chain of several): as the sequence (P32908 whole entry, chain 1 of 4, one chain of several) above

[5] = biological target: T5, Tof1-Csm3 complex (S. cerevisiae (budding yeast), UniProt P53840 1-1238; Q04659 1-317); assay: as above
T5 construct: Tof1, budding yeast; Csm3, budding yeast; Held on calmodulin dynabeads when used as bait; source: purified as previously described (Yeeles et al. 2017)
T5 sequence (P53840 whole entry, chain 1 of 2): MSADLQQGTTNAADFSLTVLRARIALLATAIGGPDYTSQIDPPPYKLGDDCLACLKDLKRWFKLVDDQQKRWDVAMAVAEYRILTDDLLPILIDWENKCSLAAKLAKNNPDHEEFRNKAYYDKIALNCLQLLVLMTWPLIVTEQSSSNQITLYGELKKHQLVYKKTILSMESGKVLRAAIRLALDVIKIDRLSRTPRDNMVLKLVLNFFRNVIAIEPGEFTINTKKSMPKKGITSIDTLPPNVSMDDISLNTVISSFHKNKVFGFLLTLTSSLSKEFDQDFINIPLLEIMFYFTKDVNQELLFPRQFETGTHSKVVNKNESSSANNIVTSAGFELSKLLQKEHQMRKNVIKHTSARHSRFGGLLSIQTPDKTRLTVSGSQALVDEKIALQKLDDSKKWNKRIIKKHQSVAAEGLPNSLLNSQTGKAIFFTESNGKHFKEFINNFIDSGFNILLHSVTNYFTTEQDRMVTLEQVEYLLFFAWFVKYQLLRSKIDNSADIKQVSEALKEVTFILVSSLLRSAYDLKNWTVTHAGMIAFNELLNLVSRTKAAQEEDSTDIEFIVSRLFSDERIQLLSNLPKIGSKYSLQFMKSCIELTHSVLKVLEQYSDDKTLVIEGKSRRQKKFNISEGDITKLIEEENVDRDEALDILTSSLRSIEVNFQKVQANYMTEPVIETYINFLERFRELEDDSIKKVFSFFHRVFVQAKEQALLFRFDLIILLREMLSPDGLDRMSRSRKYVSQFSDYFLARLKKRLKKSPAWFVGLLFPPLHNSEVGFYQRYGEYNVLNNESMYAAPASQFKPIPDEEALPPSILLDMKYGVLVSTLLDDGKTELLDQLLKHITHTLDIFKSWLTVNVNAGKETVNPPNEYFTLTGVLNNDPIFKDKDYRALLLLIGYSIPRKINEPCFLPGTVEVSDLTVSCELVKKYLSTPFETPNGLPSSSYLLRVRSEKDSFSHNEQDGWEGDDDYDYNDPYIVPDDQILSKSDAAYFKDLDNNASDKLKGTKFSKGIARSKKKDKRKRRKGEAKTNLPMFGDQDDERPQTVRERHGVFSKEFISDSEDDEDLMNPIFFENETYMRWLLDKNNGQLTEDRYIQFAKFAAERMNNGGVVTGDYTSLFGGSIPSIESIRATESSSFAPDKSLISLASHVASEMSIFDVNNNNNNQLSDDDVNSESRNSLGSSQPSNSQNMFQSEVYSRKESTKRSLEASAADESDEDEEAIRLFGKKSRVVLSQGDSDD
T5 sequence (Q04659 whole entry, chain 2 of 2): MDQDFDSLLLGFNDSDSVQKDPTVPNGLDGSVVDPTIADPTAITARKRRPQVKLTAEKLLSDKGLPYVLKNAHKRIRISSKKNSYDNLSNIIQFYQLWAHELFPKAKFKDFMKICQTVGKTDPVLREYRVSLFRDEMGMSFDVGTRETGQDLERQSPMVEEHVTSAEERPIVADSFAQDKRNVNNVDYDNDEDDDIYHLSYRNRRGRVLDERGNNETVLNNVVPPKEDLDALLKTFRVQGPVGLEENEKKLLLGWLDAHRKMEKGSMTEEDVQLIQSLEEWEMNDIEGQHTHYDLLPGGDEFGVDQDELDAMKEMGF

binding result [1]: binds
binding result [2]: binds
binding result [3]: binds
binding result [4]: binds
binding result [5]: binds
B1: Mrc1 (natural protein, S. cerevisiae (budding yeast), UniProt P25588 1-1096, looked up)
chain: MDDALHALSSLTAKKRTTTYKKVAVPILDENDNTNGNGPNDIDNPPELTGNGFLFANATLNRVKNRLEGKKAPEQNHNNGKDRSENSLPTQLISNLYDGGEELEKSEVKDNSYSEKNVSSSFTQTQRIPVSIQQDKVFNVPIHSVNDGKPTQLIKEDGLVNETSQALKTPLTTGRPGATQRIDSSGATSQTQPIKSIEPQSQIITTSSNHSNALSPKIPIIPTELIGTSPLFQSIQNRGPDTQMDVPPQTAHDEDKTQAIGIPQATHQEQKTQIDTVAQTLQDEVPHTLKIREIQSELASEDSKREKARNVEYKKPQKPIPTKKFFSKESFLADFDDSSSNEDDDIKLENAHPKPVQNDDELHENKSVELNLTDETRINEKRVPLLSSYANNLKREIDSSKCITLDLDSDSDEYGDDDMDSIKLSKDESVLPISQLSKATILNLKARLSKQNQKLSQRPNKSKDPKVDHNVLLNTLRKASRKQILDHQKEVIETKGLKLEDMAKEKEIVENLLEQEILRNKRIRQKEKRREKLEENDFQLNAHDSGSDSGSESSGFALSGNEIADYESSGSENDNRRESDSEKEDDEIILKQKKSHHVKHIINESDSDTEVEAKPKEKADESLPKRIAINLGHYGDNIGEDTDKFQETNVLDTQNIEEVMAERNTIENEVKDDVYVNEEADEAIRRQLIDKEKLQLKQKEKEHEAKIKELKKRGVTNFFEMEAEESEDEWHGIGGADGEGSDDYDSDLEKMIDDYSKNNFNPHEIREMLAAENKEMDIKMINKILYDIKNGGFRNKRAKNSLELELSDDDEDDVLQQYRLKRRELMRKRRLEIGDDAKLVKNPKSSAFFESMVEDIIEYKNPFGAEEEYNLDITSTATDLDTQDNSINVGDNTGNNEQKPVDQKNKKVIISEDFVQKSLSFLKSNNYEDFETDKELSRIQHGNDEAIEDLYTLKQNSSIKSFTNSQTDSTTSKTVNTIIDLEKRPEDEDEVENGDTSLVGVFKHPSIIKSFASRTDINDKFKEGNKTVKILKSYKTVGSSKASITYMGKTRKLIAPKRKTEGSHRYHHDHHNKKMKMKTKTKSNKLFESGQDSFDN
notes: Mrc1, budding yeast; also called Flag-tagged Mrc1; source: purified as previously described (Yeeles et al. 2017)
